Reference: US20070282095

Columns and labels:
[1] = target: blood coagulation factor 13 (Fibrogammin P) (UniProt P00488)
[2] = target: fibrinogen (UniProt P02671)
fibrinogen, sequence (P02671 20-629, chain 1 of 3): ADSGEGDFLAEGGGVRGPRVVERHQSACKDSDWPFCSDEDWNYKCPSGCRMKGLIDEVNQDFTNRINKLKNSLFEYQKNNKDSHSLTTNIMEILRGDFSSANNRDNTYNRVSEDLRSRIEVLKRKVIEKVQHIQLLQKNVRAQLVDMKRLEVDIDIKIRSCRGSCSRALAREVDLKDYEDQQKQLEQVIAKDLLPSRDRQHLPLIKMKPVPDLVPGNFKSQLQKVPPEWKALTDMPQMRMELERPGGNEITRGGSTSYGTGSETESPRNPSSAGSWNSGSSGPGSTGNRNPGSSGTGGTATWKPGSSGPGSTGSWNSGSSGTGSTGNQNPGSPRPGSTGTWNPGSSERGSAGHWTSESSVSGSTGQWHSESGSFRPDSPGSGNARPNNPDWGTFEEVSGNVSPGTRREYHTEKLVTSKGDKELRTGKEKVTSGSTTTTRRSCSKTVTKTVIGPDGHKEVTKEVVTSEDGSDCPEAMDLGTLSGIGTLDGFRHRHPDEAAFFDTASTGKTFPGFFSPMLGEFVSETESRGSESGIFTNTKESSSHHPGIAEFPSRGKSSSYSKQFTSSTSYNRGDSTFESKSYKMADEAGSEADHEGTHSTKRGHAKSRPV
fibrinogen, sequence (chain, as listed by the source, chain 2 of 3): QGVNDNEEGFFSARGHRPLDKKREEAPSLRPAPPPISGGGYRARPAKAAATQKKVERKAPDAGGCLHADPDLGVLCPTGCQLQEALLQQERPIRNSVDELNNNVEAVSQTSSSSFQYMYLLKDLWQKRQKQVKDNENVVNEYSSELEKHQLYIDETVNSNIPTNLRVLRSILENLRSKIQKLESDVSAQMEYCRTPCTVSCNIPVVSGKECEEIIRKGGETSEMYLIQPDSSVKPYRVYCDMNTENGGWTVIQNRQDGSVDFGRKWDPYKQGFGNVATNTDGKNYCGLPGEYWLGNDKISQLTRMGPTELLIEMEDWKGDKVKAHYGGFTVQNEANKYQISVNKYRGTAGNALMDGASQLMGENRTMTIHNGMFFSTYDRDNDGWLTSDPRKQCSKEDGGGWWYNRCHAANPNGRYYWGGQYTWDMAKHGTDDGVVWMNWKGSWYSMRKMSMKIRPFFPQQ
fibrinogen, sequence (chain, as listed by the source, chain 3 of 3): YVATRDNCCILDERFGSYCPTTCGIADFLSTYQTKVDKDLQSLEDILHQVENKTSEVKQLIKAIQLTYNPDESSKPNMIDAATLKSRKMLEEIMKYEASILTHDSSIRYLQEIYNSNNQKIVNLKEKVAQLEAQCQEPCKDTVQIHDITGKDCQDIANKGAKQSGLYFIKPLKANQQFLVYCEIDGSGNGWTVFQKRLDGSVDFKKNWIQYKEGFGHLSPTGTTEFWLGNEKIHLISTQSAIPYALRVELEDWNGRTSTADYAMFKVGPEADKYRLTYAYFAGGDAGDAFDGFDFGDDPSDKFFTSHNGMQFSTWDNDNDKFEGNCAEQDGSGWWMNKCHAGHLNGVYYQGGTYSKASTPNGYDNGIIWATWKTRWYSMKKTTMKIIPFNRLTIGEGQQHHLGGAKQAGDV

blood coagulation factor 13 (Fibrogammin P), sequence (P00488 2-732, chain 1 of 2): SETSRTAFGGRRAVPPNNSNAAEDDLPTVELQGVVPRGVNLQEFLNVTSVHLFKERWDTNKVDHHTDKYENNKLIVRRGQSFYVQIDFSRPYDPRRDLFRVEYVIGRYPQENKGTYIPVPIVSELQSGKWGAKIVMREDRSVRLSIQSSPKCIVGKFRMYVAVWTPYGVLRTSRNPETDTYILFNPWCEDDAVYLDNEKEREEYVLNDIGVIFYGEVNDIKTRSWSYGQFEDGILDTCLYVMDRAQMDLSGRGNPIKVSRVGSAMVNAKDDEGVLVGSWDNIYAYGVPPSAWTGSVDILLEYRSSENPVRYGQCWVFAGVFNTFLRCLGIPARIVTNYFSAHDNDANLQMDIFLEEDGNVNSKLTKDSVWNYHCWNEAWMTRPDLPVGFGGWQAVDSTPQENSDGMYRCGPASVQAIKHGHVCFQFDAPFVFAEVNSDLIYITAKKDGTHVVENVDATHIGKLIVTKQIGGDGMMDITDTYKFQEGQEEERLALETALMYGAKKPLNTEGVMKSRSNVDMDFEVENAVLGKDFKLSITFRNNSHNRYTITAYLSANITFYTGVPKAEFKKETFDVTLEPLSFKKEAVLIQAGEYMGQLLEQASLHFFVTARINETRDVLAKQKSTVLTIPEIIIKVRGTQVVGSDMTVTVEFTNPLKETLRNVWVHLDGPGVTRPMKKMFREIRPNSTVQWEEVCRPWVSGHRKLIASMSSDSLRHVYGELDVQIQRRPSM
blood coagulation factor 13 (Fibrogammin P), sequence (chain, as listed by the source, chain 2 of 2): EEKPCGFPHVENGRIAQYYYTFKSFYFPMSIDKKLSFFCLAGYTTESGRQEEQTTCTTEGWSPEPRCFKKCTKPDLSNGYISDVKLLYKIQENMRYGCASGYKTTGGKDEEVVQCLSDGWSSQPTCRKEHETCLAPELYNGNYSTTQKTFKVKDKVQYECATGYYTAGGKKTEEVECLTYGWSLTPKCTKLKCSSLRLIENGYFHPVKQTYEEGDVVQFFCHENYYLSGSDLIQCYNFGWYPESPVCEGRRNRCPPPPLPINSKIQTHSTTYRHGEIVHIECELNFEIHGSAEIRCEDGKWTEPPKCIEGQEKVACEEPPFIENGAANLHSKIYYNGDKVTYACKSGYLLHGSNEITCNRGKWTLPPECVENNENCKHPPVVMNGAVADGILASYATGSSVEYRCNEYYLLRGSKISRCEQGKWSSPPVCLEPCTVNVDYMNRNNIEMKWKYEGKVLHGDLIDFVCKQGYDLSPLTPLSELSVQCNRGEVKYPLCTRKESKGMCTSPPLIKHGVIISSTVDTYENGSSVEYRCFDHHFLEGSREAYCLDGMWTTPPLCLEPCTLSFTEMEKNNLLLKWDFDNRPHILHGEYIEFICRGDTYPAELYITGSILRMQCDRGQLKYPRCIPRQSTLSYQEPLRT

Substance	cleavage of FXIII A chain, SDS-PAGE (method B), 37°C 3 hours [1]	cleavage of FXIII A chain, SDS-PAGE (method B), 37°C [1]	clot formation from Fbgn (method C), 37°C 3 hours [2]
205A43S thrombin (serine 205 to alanine, histidine 43 to serine in B chain)	no band of A chain-activated product of FXIII was observed	–	–
203A thrombin (glycine at position 203 in B chain substituted by alanine)	–	The A chain of FXIII was observed to provide a cleaved product 30 minutes later, and more than half of the A chain was cleaved after three hours	a clot was formed after three hours
205T thrombin (serine at position 205 in B chain substituted by threonine)	A chains of almost all FXIII were activated in a similar manner as that of the wild-type thrombin, and bands of cleaved FXIII were observed	–	–
203A205G thrombin (glycine at position 203 in B chain substituted by alanine, serine at position 205 substituted by glycine)	–	No band of an A chain-activated product of FXIII was observed in the sample (lane 6) which was obtained after 3-hour incubation	no clot formation was observed
203A205A thrombin (glycine 203 to alanine, serine 205 to alanine in B chain)	–	No band of A chain-activated product of FXIII was observed even in lane 6 which was obtained after 3 hour-incubation	–
205A thrombin (serine at position 205 in B chain substituted by alanine)	–	Even 3 hours later, no A chain of activated FXIII was observed as shown in lane 8	–
203A205A99N thrombin (glycine 203 to alanine, serine 205 to alanine, aspartic acid 99 to asparagine in B chain)	no band of an A chain-activated product of FXIII was observed	–	–
205A99N thrombin (serine 205 to alanine, aspartic acid 99 to asparagine in B chain)	no band of an A chain-activated product of FXIII was observed	–	–
205G43A thrombin (serine 205 to glycine, histidine 43 to alanine in B chain)	no band of an A chain-activated product of FXIII was observed	–	–
